± gives the standard deviation of the averaged measurements.
Assays:
[1] = melting temperature (DSF); higher = more thermostable
In short: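 Values are melting temperatures from differential scanning fluorimetry. Candidate enzymes were expressed in E. coli C41(DE3), purified on nickel beads and freed by SUMO protease cleavage. In sealed PCR plates on a Bio-Rad CFX96, 45 μL enzyme (0 to 0.3 mg/mL) was combined with 5 μL 5X Sypro Orange. Fluorescence was recorded from 25 °C for 250 cycles, rising 0.3 °C per cycle at a ramp of 0.3 °C/s.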

[2] = purified protein yield per well (BCA); higher = higher soluble expression
In short: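 Candidate enzymes were made in 2 mL autoinduction cultures of E. coli C41(DE3) with 100 µg/mL kanamycin, at 37 °C for 2 h and then 18 °C for 40 h, and purified with Ni-charged magnetic beads and SUMO protease cleavage. The Pierce Rapid Gold BCA kit gave purified protein yield per well. Values lower than 25 ug (0.1 mg/mL) are below the detection threshold.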

[3] = PET hydrolysis, aromatic products released after 48 h (umol product/mg enzyme); higher = more PET depolymerization activity
In short: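 Hydrolysis activity toward PET is reported as supernatant aromatic product per mg enzyme. To measure it, 5 μg (50 μL) of tagless enzyme was incubated with 3.5 mg amorphous PET film or crystalline PET powder in 450 μL buffer for 48 h at 40 or 60 °C in sealed, unshaken plates. The product was quantified by absorbance at 260 and 280 nm relative to buffer blanks.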

[4] = substrate: aFilm, 40 °C, pH 4.5
[5] = substrate: aFilm, 40 °C, pH 5.5
[6] = substrate: aFilm, 40 °C, pH 6.5
[7] = substrate: aFilm, 40 °C, pH 7.5
[8] = substrate: aFilm, 60 °C, pH 4.5
[9] = substrate: aFilm, 60 °C, pH 5.5
[10] = substrate: aFilm, 60 °C, pH 6.5
[11] = substrate: aFilm, 60 °C, pH 7.5
[12] = substrate: cryPow, 40 °C, pH 4.5
[13] = substrate: cryPow, 40 °C, pH 5.5
[14] = substrate: cryPow, 40 °C, pH 6.5
[15] = substrate: cryPow, 40 °C, pH 7.5
[16] = substrate: cryPow, 60 °C, pH 4.5
[17] = substrate: cryPow, 60 °C, pH 5.5
[18] = substrate: cryPow, 60 °C, pH 6.5
[19] = substrate: cryPow, 60 °C, pH 7.5

Sequence | melting temperature [1] [C] | purified protein yield per well [2] [µg] | PET hydrolysis [3, 4] | PET hydrolysis [3, 5] | PET hydrolysis [3, 6] | PET hydrolysis [3, 7] | PET hydrolysis [3, 8] | PET hydrolysis [3, 9] | PET hydrolysis [3, 10] | PET hydrolysis [3, 11] | PET hydrolysis [3, 12] | PET hydrolysis [3, 13] | PET hydrolysis [3, 14] | PET hydrolysis [3, 15] | PET hydrolysis [3, 16] | PET hydrolysis [3, 17] | PET hydrolysis [3, 18] | PET hydrolysis [3, 19] | PET hydrolysis ([3]; substrate: aFilm, 40 °C, pH 8.5) | PET hydrolysis ([3]; substrate: aFilm, 60 °C, pH 8.5) | PET hydrolysis ([3]; substrate: cryPow, 40 °C, pH 8.5) | PET hydrolysis ([3]; substrate: cryPow, 60 °C, pH 8.5)
ADNPYQRGPNPTRESVAASRGTFATAETSVGGGNGFAAAKIYYPTDTGQGKFGAIAVVPGYTATWAAEGAWMGHWLASFGFVVIGIDTLSRNDWDVARGTQLLAALDYLTQRSSVRDRVDATRLAVMGHSMGGGGAISAALRRPSLKTAIGNAPFSASQNLNNMQIPTALLAGQRDGTTTPSSISGYYNQIPAGVEKMYLELTGAGHGFPTSNNSVMTRKVIPWMKIFIDNDTRYHQFLCPLMDNTGISAYRSTCPLIPGDPTPPSDTYSLVGAASGKCADVEGVSQANGARLLLWTCNGQVNQRWTQTAAGELRVYDNPKCMDAGASAQGTRVTINACNGGNSQKWTVNANGTVTNAASGRCLDAGGTADNSPVVVNTCTGGSSQNWSKRS [TEP029] | 57.7 | 282 | < 3 | < 3 | < 3 | < 3 | < 3 | < 3 | < 3 | < 3 | < 3 | < 3 | 14.5 ± 5 | 15.5 ± 0.71 | < 3 | < 3 | < 3 | < 3 |  |  |  | 
ADNPYQRGPNPTVASVAATRGTFATAQTSVPAGNGFGGGVIYYPTDTSQGTFGGVAIVPGYSALFANEEAWMGPWLASFGFVVIGIETNSRTDSADARGTQLLAALDYLTQRSSVRDRVDPNRLSVVGHSAGGAGVLSAILRRPSLKAGIGLAPGSPVGDYSLSNDRVPTMFISGQRDTTVTQSYLNGLYTTIPASTPSAWVEITGVDHLFATRANTTEMRVLIPWLKIWVDNDTRYTQFLCPLADSTGISMYRNKCPYVPPGGSSPSPSPSPSSSPSRFPSPSPSPSPSQSPSQSPSASPSPPPPGACVAEYRTVNSWPGGYQGEVTVTAGGSAVNGWTVRWTLGSGQTITQLWNGTLSTSGSAVTVKNASFNGSIPASGSATFGFLATGTPSTPSLTCTSP [ESM015] | 60.7 | 540 |  |  |  |  |  |  |  |  | < 3 | < 3 | < 3 | < 3 | < 3 | < 3 | < 3 | < 3 |  |  |  | 
ADQRGPDPTVQSIEAARGPFATSTSRVSSLVSGFGGGTIYYPTDTSQGRFGGVVIAPGYTAGESSIAWLGPRLASQGFVVFTIDTLTRVDQPASRGRQLLAAADYLTQRSDVADRVDPARLAVMGHSMGGGGTLEAAKSRPGLKAIIPLTPWNLDKTWPEITTPTLIFGAQNDSVASVVTHARPFYQSLPATTPRSYLELRGASHFAPNLSNTTIAKYSIAWLKRFVDDDQRYTQFLCPAPADTALSDVRTSCPF [TEP091] | 55.6 | 36.2 |  |  |  |  |  |  |  |  | < 3 | 5 | 10 | 17 |  |  |  |  |  |  |  | 
ADSPYQRGPDPTLASVAATRGPFATTQATVPAGNGFNGGYVYYPTDTSQGTWGAVAIVPGYSALFANEEAWMGPWLASFGFVVIGIETNSRTDGADARATQLLAALDYLTRTSPIRNRVDPNRLSVMGHSAGGAGTLLAALRRPTLKAAVGLAPGTPGNNLNMSTTQVPTMLLSGQNDGTVTPSYVQGIYNTLPAGVEHAWAELAGNDHLSFTRSNPTEMRLLIPWLKTFLDNDTRYTQFLCPLADSTGVSRYSATCPLVPPDGPTPPPTTAPPTTTPPTSTPPTTSAPTTPPPSGAACTATYRTVNSWSGGFQGEVTVTAGTAAVNGWTVTWNLSNGQSISQVWNGTLSTSGSTATVRNVSYNGSLAPGGTTTFGFLGSGTPANASPTCASP [ESM014] | 59.2 | 85.8 |  |  |  |  |  |  |  |  | < 3 | < 3 | < 3 | < 3 | < 3 | < 3 | < 3 | < 3 |  |  |  | 
ADTPYERGPNPSESLIEQRRGNYDIAQRSISRFSSDGFRNGTIYYPTDTSDGKFGVIAISPGYTAGESSIAWLGSRIASFGFVVVTINTTTRYDQPRQRSTQLLAALDHAMNDSVVGPLIDPERQAVMGHSMGGGGALQAAESRPEIDAVVALTPWNLKKNWDGVDAATLIIGAERDTVASVRTHSIPFYESLTQAEQRGYLELRGASHFAPNVSNTTIAKYSIAWMKRYLDNDDRYDQFLNPGPAVGYASGVSDYRLQ [DP003] | 42.4 | 185 |  | < 3 | < 3 | < 3 |  | < 3 | < 3 | < 3 |  | < 3 | < 3 | < 3 |  | < 3 | < 3 | < 3 | 3 ± 4.2 | < 3 | < 3 | < 3
AEAADNPYQRGPDPTLASVAATRGPFATAQATVPAGNGFNGGYVYYPTDTSLGTWGAVAIVPGYSALFADEEAWMGPWLASFGFVVLGIETNSRTDGADARATQLLAALDYLTQSSPVRHRVDANRLGVMGHSAGGAGTLMAALRRPSLKSAVGLAPGAPGNSLNMSTTQVPTMLISGQNDGTVTPSYVQGIYNTLPATVEHAWAELAGNDHLSFTRPNPTEMRILIPWLKIFLDNDTRYTQFLCPLADSTGVSRYSATCPLVPPGGPTAPPTVTPPPPTPTTPSPTTPPTSAACTATYRTVNSWSGGFQGEVTVTAGRAAINGWTVRWDLGNGQSISQVWNGTLSTSGSTATVRNVSYNGSLAPAASTGFGFLGTGAPAIPRLTCTSP [ESM037] | 73.3 | 358 | < 3 | < 3 | < 3 | < 3 | < 3 | < 3 | < 3 | < 3 | < 3 | < 3 | < 3 | < 3 | < 3 | < 3 | < 3 | < 3 |  |  |  | 

From the supplement of paper PMC12455559
